{"source": "patent US20070065882", "molecular_target": "PKCβII in mouse brain (UniProt P68404)", "sequence (P68404 other isoform, or with tags, fused parts or gaps)": "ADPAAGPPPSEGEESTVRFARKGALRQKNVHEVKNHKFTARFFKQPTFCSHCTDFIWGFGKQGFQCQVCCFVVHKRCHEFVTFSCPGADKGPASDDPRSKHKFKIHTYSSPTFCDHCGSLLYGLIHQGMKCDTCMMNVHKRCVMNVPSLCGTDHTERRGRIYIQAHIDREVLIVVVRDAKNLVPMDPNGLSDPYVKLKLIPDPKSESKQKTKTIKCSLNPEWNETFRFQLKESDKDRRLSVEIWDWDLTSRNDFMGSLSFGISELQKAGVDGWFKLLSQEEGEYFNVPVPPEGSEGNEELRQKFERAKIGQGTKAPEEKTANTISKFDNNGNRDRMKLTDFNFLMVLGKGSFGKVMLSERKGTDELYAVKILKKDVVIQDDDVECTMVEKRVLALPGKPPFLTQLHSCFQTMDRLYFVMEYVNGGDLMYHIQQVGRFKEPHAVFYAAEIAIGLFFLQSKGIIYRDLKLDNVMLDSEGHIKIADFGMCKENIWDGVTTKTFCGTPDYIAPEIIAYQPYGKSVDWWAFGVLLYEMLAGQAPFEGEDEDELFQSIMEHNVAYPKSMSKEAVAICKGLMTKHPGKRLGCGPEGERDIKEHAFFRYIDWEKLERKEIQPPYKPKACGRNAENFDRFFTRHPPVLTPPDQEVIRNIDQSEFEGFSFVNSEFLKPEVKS"}
{"substance": "recombinant human AChE-R, 'readthrough' variant of acetylcholinesterase", "values": [{"measurement": "PKC activity in brain homogenates (PKC assay kit, Upstate Biotechnology)", "value": "Note the elevation of PKC activity in the different brain regions in the AChE-R transgenics as compared to FVB/N controls"}]}
